Patent US20260193317A1, “COMBINATION THERAPY WITH ACTRIIB RECEPTOR VARIANTS AND GLP-1 AGONISTS” (35PHARMA Inc., priority 2023, published 2026)
Like-named read-outs stand apart in the source and are kept apart here. Blank lines part the entries; values can stand above or below the molecule they belong to.

Key:
[1] = tested on: follicle-stimulating hormone (FSH); experiment: FSH production in DIO mice; assay type: in vivo; details: 3 weeks of treatment
Description: Experiments were performed to assess the effects of P1229 on body composition and metabolism in diet-induced obese (DIO) mice. DIO mice were purchased from Jackson Laboratories (#380050). Briefly, mice were fed a high-fat diet (HFD, 60% kcal from fat) from 6 weeks of age until 22 weeks of age (total of 16 weeks on the HFD). […] After 3 weeks of treatments, some animals were sacrificed and scanned by EchoMRI […] (FIGS. 11A-F), while others were sacrificed for tissue collection and RNA analysis. Animals were maintained on the HFD throughout the acclimatization and treatment periods. The murine version of bimagrumab used for these experiments comprises the heavy chain amino acid sequence of SEQ ID NO: 376 and the light chain sequence of SEQ ID NO: 377.
Follicle-stimulating hormone (FSH) is a known biomarker of in vivo target engagement for activin receptor-based traps (See Attie et al. (2013). Muscle Nerve, 47: 416-423). To further validate in vivo target engagement for exemplary agents, FSH production was evaluated in DIO mice, as described above.

[2] = Skeletal muscle mass and Mss51 expression in lean mice; assay type: in vivo
Description: The effects of P1229 on body composition and metabolism in lean mice were further assessed.
Additional assays were performed to assess the relative expression level of Mss51, a skeletal muscle-specific gene. Mss51 is a key target of myostatin signaling, with a role in fatty acid oxidation, glycolysis, and oxidative phosphorylation.

[3] = mouse, in vivo, sc
Description: Evaluation of pharmacokinetic profiles.
To determine the concentration of P1229 in mouse serum samples, a 96-well plate was coated 1 h at RT with a solution of anti-ectodomain antibody (1 μg/mL in carbonate buffer, 100 μL/well). The plate was then washed three times with buffer (Biolegend #421601). Blocking buffer (1% BSA, 0.05% tween-20 in TBS, 300 μL/well) was added to each well and the plate was incubated for 1 hour at RT with shaking at 300 rpm. The plate was washed three times and Standards, QCs and sample were diluted in assay diluent (1% BSA, 0.05% tween-20 in TBS, 100 μL/well) and loaded in duplicate on the plate for 1 h30 at RT with shaking at 300 rpm. The plate was washed three times and a solution of anti-human Fc antibody conjugated to HRP (Southern Biotech #2049-05, diluted 1 in 20,000 in assay diluent, 100 μL/well) was added to each well and incubated for 1 h at RT with shaking at 300 rpm.

DIO mice = experiment: Body composition in high fat diet mice, alone and in combination with incretin mimetics; assay type: in vivo
Description: Experiments were performed in vivo to investigate the potential for additive or synergistic effects between exemplary ActRIIB-ECD polypeptide constructs and incretin mimetics.

[4] = Co-formulation study of ectodomain-based traps with incretin mimetics (monomer content by SEC / RP-HPLC, integrity, stability); assay type: physicochemical
Description: In each case, the following parameters were assessed: a) monomer content (size exclusion chromatography), b) activin A and GDF-8 neutralization (cell-based assays [CBAs]), c) activin A binding (ELISA), d) GLP-1 receptor binding (ELISA).
In each case, the following parameters were assessed: a) monomer content (size exclusion chromatography), b) activin A and GDF-8 neutralization (cell-based assays [CBAs]), and c) GLP-1 receptor activation (CBA).
Given that protein aggregation can be indicative of reduced conformational stability and decreased activity, Size-Exclusion Chromatography-High Performance Liquid Chromatography (SEC-HPLC) was used to determine the purity of each ActRIIB-ECD construct. This method measured the percentage of intact monomeric species as well as the presence of aggregates and/or degradation products.
In some instances, the method used to assess the purity of an agent was based on a reversed-phase high-performance liquid chromatography (RP-HPLC) setup with a C18 column. The mobile phases consisted of acetonitrile with 0.1% formic acid (organic phase) and water with 0.1% formic acid (aqueous phase). […] Formic acid anions form an ion pair with positively charged peptides, increasing their hydrophobicity and therefore their retention time. Detection was performed using a UV detector, at 280 nm.

activin A [5] = biological target: T1, activin A (Homo sapiens, UniProt P08476); experiment: Potency testing by ELISA: activin A binding; details: for ELISA potency Activin A, potency fold-change: relative to reference (P1372 = 1)
T1 sequence (P08476 311-426): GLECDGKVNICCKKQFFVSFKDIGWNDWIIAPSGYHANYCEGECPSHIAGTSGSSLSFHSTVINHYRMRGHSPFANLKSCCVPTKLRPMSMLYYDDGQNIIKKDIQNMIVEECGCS
From the text: Potency testing by ELISA. […] The next day, the plate was washed three times with buffer (Biolegend #421601).

activin A [6] = biological target: T1, activin A; experiment: TGFβ-reporter HEK293 cell-based assay: activin A neutralization; details: for IC50: read-out: CBA Potency Activin A; for CBA potency Activin A, potency fold-change: relative to reference (P1372 = 1)
Description: (§1) Potency testing by neutralization on cell-based assays. Characterization of the activin A, activin B, GDF-8, and GDF-11 inhibition potency (IC50) of the fusion proteins was performed using a cell-based reporter assay. TGFβ-reporter HEK293 cells were obtained from InvivoGen (San Diego, CA, cat. no. hkb-tgfb) and were maintained following the manufacturer's instructions. Briefly, cells were grown in high-glucose DMEM, containing 10% heat-inactivated FBS, 30 μg/mL blasticidin, 250 μg/mL hygromycin B, and 100 μg/mL zeocin (hereafter, “growth medium”). Once the cells reached 70-80% confluence, they were detached in growth medium by gently tapping on the flask. For all assays, cells were seeded in 96-well plates at a density of 20,000 cells per well in growth medium. Cells were left to attach for 10 minutes at room temperature (RT) prior to being transferred to a 37° C. incubator (5% CO2) overnight. The next day, treatments were prepared by combining the appropriate concentration of agent with activin A, activin B, GDF-8, or GDF-11 for 30 min at RT (shaking at 150 rpm). Treatments were conducted in high-glucose DMEM (serum-free and with no selection agents), and the final concentration of cytokine (ligand) was 0.3 nM. Growth medium was removed from the culture plates, and cells were treated with the appropriate mixes of fusion protein and cytokine. Treatment duration was for 18-22 h at 37° C. (5% CO2). All treatments were performed in technical duplicates and at least one or two independent experiments were conducted for each cytokine. At the end of the treatment period, supernatants were transferred to a new plate, and centrifuged at 300 RPM for 3 min. Forty microlitres of supernatant from each condition was transferred to a new plate, into which 180 μL of Quanti-Blue reagent (InvivoGen, cat. no. rep-qbs) was added. Quanti-Blue reagent was prepared following the manufacturer's instructions. Samples were incubated for 45 min at 37° C. At the end of the incubation, absorbance was read at 650 nm. The data were plotted in GraphPad Prism, which was used to calculate IC50 values as a non-linear regression.

GDF-8 = GDF-8 (Homo sapiens, UniProt O14793); experiment: TGFβ-reporter HEK293 cell-based assay: GDF-8 neutralization; details: for IC50: read-out: CBA Potency GDF-8; for CBA potency GDF-8, potency fold-change: relative to reference (P1372 = 1)
Description: as §1

[7] = DIO mice, 21 days, P1229 10 mg/kg twice weekly
[8] = DIO mice, 21 days, P1229 40 mg/kg twice weekly + calorie restriction
[9] = D 7 after storage at room temperature
[10] = D 28, storage at room temperature

Molecule: P1229: hActRIIB L33W, 14 aa linker, IgG1-DL Fc; SEQ ID 211
FSH production [1]: significant decreases in FSH production | tibialis anterior and gastrocnemius weight ([2]; 25 mg/kg twice weekly, seven days): significantly increased | Mss51 expression in the tibialis muscle relative to vehicle ([2]; 5 or 25 mg/kg twice weekly, one week): dose-dependent decrease in Mss51 expression | PK profile alone versus in the co-formulation [3]: comparable PK profile | Body weight (% change from baseline) (DIO mice; DIO mice, 21 days s.c., P1307 20 mg/kg weekly, P1229 40 mg/kg twice weekly, semaglutide 40 μg/kg daily, tirzepatide 45 μg/kg daily, alone or combined): +11.1% | Body weight (% change from baseline) (DIO mice; [7]): +7.7% | Fat mass (% change from baseline) (DIO mice; [7]): −1.6% | Lean mass (% change from baseline) (DIO mice; [7]): +10.6% | Lean mass/fat mass ratio (DIO mice; [7]): 1.4 | Body weight (% change from baseline) (DIO mice; [8]): −12.8% | Fat mass (% change from baseline) (DIO mice; [8]): −33.7% | Lean mass (% change from baseline) (DIO mice; [8]): +3.5% | Lean mass/fat mass ratio (DIO mice; [8]): 1.9 | visceral, epididymal, pericardial, peri-renal, and retroperitoneal white adipose tissue weights (DIO mice; DIO mice, D21): not significantly affected | white adipose tissue weights (DIO mice; DIO mice, D21, P1229 with caloric restriction): significantly decreased visceral, pericardial, and peri-renal (but not epididymal and retroperitoneal) white adipose tissue weights | gastrocnemius and tibialis anterior weights (DIO mice; DIO mice, D21, P1229 with or without caloric restriction): significantly increased | Fat mass (% change from baseline) (DIO mice; as E44, NMR): +2.7% | Lean mass (% change from baseline) (DIO mice; as E44, NMR): +15.1% | Lean mass/fat mass ratio (DIO mice; as E44, NMR): 1.3

ELISA potency Activin A, fold-change vs reference (activin A [5]; D 0): 1 (ref) | ELISA potency Activin A, fold-change vs reference (activin A [5]; D 7 after storage at 2-8° C.): 1 (ref) | ELISA potency Activin A, fold-change vs reference (activin A [5]; [9]): 1 (ref) | ELISA potency Activin A, potency fold-change (activin A [5]; D 28, storage at 2-8° C.): 1 (ref) fold | ELISA potency Activin A, potency fold-change (activin A [5]; [10]): 1 (ref) fold | CBA potency Activin A, fold-change vs reference (activin A [6]; D 0): 1 (ref) | IC50 (activin A [6]; D 0): 0.59 nM | IC50 (activin A [6]; D 7, 2-8° C.): 0.81 nM | IC50 (activin A [6]; D 7, RT): 0.78 nM | CBA potency Activin A, fold-change vs reference (activin A [6]; D 7 after storage at 2-8° C.): 1 (ref) | CBA potency Activin A, fold-change vs reference (activin A [6]; [9]): 1 (ref) | IC50 (activin A [6]; D 14, 2-8° C.): 0.63 nM | IC50 (activin A [6]; D 14, RT): 0.74 nM | IC50 (activin A [6]; D 28, 2-8° C.): 0.99 nM | IC50 (activin A [6]; D 28, RT): 0.9 nM | CBA potency Activin A, potency fold-change (activin A [6]; D 28, storage at 2-8° C.): 1 (ref) fold | CBA potency Activin A, potency fold-change (activin A [6]; [10]): 1 (ref) fold | IC50 (activin A [6]; D 56, RT): 1.1 nM | CBA potency GDF-8, fold-change vs reference (GDF-8; D 0): 1 (ref) | IC50 (GDF-8; D 0): 0.27 nM | IC50 (GDF-8; D 7, 2-8° C.): 0.22 nM | IC50 (GDF-8; D 7, RT): 0.24 nM | CBA potency GDF-8, fold-change vs reference (GDF-8; D 7 after storage at 2-8° C.): 1 (ref) | CBA potency GDF-8, fold-change vs reference (GDF-8; [9]): 1 (ref) | IC50 (GDF-8; D 14, 2-8° C.): 0.35 nM | IC50 (GDF-8; D 14, RT): 0.36 nM | IC50 (GDF-8; D 28, 2-8° C.): 0.45 nM | IC50 (GDF-8; D 28, RT): 0.44 nM | CBA potency GDF-8, potency fold-change (GDF-8; D 28, storage at 2-8° C.): 1 (ref) fold | CBA potency GDF-8, potency fold-change (GDF-8; [10]): 1 (ref) fold | IC50 (GDF-8; D 56, 2-8° C.): 0.34 nM | IC50 (GDF-8; D 56, RT): 0.36 nM
B1: P1372: hActRIIB L33W, 14 aa linker, IgG1 YTE-DL Fc; SEQ ID 231 (protein)
chain: ETRECIYYNANWELERTNQSGLERCEGEQDKRWHCYASWRNSSGTIELVKKGCWLDDFNCYDRQECVATEENPQVYFCCCEGNFCNERFTHLPEAGGPEVTYEPPPTGGGGSGGGGSGGGGTHTCPPCPAPELLGGPSVFLFPPKPKDTLYITREPEVTCVVVDVSHEDPEVKFNWYVDGVEVHNAKTKPREEQYNSTYRVVSVLTVLHQDWLNGKEYKCKVSNKALPAPIEKTISKAKGQPREPQVYTLPPSRDELTKNQVSLTCLVKGFYPSDIAVEWESNGQPENNYKTTPPVLDSDGSFFLYSKLTVDKSRWQQGNVFSCSVMHEALHNHYTQKSLSLSPG
Monomer content P1372 ([4]; D 0, P1372 40 mg/mL, semaglutide […], pH 7.5): 99.3% | Monomer Content (%) P1372 ([4]; D 0, P1372 40 mg/mL, tirzepatide 10 mg/mL, 10 mM NaPO4, 100 mM Glycine, 75 mM sucrose (pH 7.5)): 98.9% | Monomer Content (%) P1372 ([4]; D 7, 2-8° C.): 98.9% | Monomer Content (%) P1372 ([4]; D 7, RT): 98.8% | Monomer content P1372 ([4]; D 7 after storage at 2-8° C.): 99.3% | Monomer content P1372 [4, 9]: 99.2% | Monomer Content (%) P1372 ([4]; D 14, 2-8° C.): 98.8% | Monomer Content (%) P1372 ([4]; D 14, RT): 97.9% | Monomer Content (%) P1372 ([4]; D 28, 2-8° C.): 98.9% | Monomer Content (%) P1372 ([4]; D 28, RT): 98.6% | Monomer content P1372 ([4]; D 28, storage at 2-8° C., 10 mM NaPO4, 100 mM glycine, 75 mM sucrose pH 7.5): 99.2% | Monomer content P1372 ([4]; D 28, storage at room temperature, 10 mM NaPO4, 100 mM glycine, 75 mM sucrose pH 7.5): 98.8% | Monomer Content (%) P1372 ([4]; D 56, 2-8° C.): 98.8% | Monomer Content (%) P1372 ([4]; D 56, RT): 98.4%
